In patent publication US20160272683A1 (Novo Nordisk, published 2016):
Numbered stars: 1 amine (or outer) side, 2 acyl side, 3 side chain; on linkers, the order of the positions; unused ones are H or OH. * marks the point of attachment. C20 diacid = O=C(O)CCCCCCCCCCCCCCCCCCC(=O)*; C18 diacid = O=C(O)CCCCCCCCCCCCCCCCC(=O)*; γGlu = O=C(O)[C@H](CCC(=O)[*:2])N[*:1]; AEEA = NCCOCCOCC(=O)O

T1: human amylin receptor (human calcitonin receptor + human RAMP3) (human) (UniProt P30988)
T1 sequence (looked up) 1: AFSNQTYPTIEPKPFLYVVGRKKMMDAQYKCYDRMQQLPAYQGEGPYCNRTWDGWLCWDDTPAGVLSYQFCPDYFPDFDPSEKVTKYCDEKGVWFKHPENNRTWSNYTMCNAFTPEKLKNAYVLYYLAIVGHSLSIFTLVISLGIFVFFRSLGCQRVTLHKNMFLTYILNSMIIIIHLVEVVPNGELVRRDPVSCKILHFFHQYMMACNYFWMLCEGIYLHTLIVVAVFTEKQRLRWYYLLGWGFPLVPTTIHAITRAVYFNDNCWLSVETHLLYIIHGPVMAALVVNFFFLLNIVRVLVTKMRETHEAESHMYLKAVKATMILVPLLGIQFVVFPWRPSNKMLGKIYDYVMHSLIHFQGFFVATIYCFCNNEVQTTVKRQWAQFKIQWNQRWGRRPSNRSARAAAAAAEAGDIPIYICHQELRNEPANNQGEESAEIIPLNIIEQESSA
T1 sequence (looked up) 2: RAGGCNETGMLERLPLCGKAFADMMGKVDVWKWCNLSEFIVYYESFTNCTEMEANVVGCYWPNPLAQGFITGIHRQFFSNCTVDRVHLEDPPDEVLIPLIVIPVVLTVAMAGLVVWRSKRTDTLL


Molecular target: T1, human amylin receptor (human calcitonin receptor + human RAMP3) (human)
Assay: whole-cell competition vs 125I-rat amylin (Assay Va)

IC50 [nM] | Binder
0.375 | {C18 diacid}-EPSELSTAVLGRLSAELHELATLPRTETGPESP-NH2 (SMILES CC(C)C[C@H](NC(=O)[C@H](CCC(=O)O)NC(=O)[C@H](Cc1c[nH]cn1)NC(=O)[C@H](CC(C)C)NC(=O)[C@H](CCC(=O)O)NC(=O)[C@H](C)NC(=O)[C@H](CO)NC(=O)[C@H](CC(C)C)NC(=O)[C@H](CCCNC(=N)N)NC(=O)CNC(=O)[C@H](CC(C)C)NC(=O)[C@@H](NC(=O)[C@H](C)NC(=O)[C@@H](NC(=O)[C@H](CO)NC(=O)[C@H](CC(C)C)NC(=O)[C@H](CCC(=O)O)NC(=O)[C@H](CO)NC(=O)[C@@H]1CCCN1C(=O)[C@H](CCC(=O)O)NC(=O)CCCCCCCCCCCCCCCCC(=O)O)[C@@H](C)O)C(C)C)C(=O)N[C@@H](C)C(=O)N[C@H](C(=O)N[C@@H](CC(C)C)C(=O)N1CCC[C@H]1C(=O)N[C@@H](CCCNC(=N)N)C(=O)N[C@H](C(=O)N[C@@H](CCC(=O)O)C(=O)N[C@H](C(=O)NCC(=O)N1CCC[C@H]1C(=O)N[C@@H](CCC(=O)O)C(=O)N[C@@H](CO)C(=O)N1CCC[C@H]1C(N)=O)[C@@H](C)O)[C@@H](C)O)[C@@H](C)O) [[N-terminal(C18 diacid), 2P, 9V]mimylin]
0.383 | {C18 diacid}-EASELSTAVLGRLSAELHELATLPPTETGPESP-NH2 (SMILES CC(C)C[C@H](NC(=O)[C@H](CCC(=O)O)NC(=O)[C@H](Cc1c[nH]cn1)NC(=O)[C@H](CC(C)C)NC(=O)[C@H](CCC(=O)O)NC(=O)[C@H](C)NC(=O)[C@H](CO)NC(=O)[C@H](CC(C)C)NC(=O)[C@H](CCCNC(=N)N)NC(=O)CNC(=O)[C@H](CC(C)C)NC(=O)[C@@H](NC(=O)[C@H](C)NC(=O)[C@@H](NC(=O)[C@H](CO)NC(=O)[C@H](CC(C)C)NC(=O)[C@H](CCC(=O)O)NC(=O)[C@H](CO)NC(=O)[C@H](C)NC(=O)[C@H](CCC(=O)O)NC(=O)CCCCCCCCCCCCCCCCC(=O)O)[C@@H](C)O)C(C)C)C(=O)N[C@@H](C)C(=O)N[C@H](C(=O)N[C@@H](CC(C)C)C(=O)N1CCC[C@H]1C(=O)N1CCC[C@H]1C(=O)N[C@H](C(=O)N[C@@H](CCC(=O)O)C(=O)N[C@H](C(=O)NCC(=O)N1CCC[C@H]1C(=O)N[C@@H](CCC(=O)O)C(=O)N[C@@H](CO)C(=O)N1CCC[C@H]1C(N)=O)[C@@H](C)O)[C@@H](C)O)[C@@H](C)O) [[N-terminal(C18 diacid), 9V, 25P]mimylin]
0.745 | {C18 diacid}-EASELSTAVLGRLSAELAELATLPRTETGPESP-NH2 (SMILES CC(C)C[C@H](NC(=O)[C@H](CCC(=O)O)NC(=O)[C@H](C)NC(=O)[C@H](CO)NC(=O)[C@H](CC(C)C)NC(=O)[C@H](CCCNC(=N)N)NC(=O)CNC(=O)[C@H](CC(C)C)NC(=O)[C@@H](NC(=O)[C@H](C)NC(=O)[C@@H](NC(=O)[C@H](CO)NC(=O)[C@H](CC(C)C)NC(=O)[C@H](CCC(=O)O)NC(=O)[C@H](CO)NC(=O)[C@H](C)NC(=O)[C@H](CCC(=O)O)NC(=O)CCCCCCCCCCCCCCCCC(=O)O)[C@@H](C)O)C(C)C)C(=O)N[C@@H](C)C(=O)N[C@@H](CCC(=O)O)C(=O)N[C@@H](CC(C)C)C(=O)N[C@@H](C)C(=O)N[C@H](C(=O)N[C@@H](CC(C)C)C(=O)N1CCC[C@H]1C(=O)N[C@@H](CCCNC(=N)N)C(=O)N[C@H](C(=O)N[C@@H](CCC(=O)O)C(=O)N[C@H](C(=O)NCC(=O)N1CCC[C@H]1C(=O)N[C@@H](CCC(=O)O)C(=O)N[C@@H](CO)C(=O)N1CCC[C@H]1C(N)=O)[C@@H](C)O)[C@@H](C)O)[C@@H](C)O) [[N-terminal(C18 diacid), 9V, 18A]mimylin]
1.59 | {C20 diacid-γGlu}-EASELSTAALGRLSAELHELATYPRTETGSGSP-NH2 (SMILES CC(C)C[C@H](NC(=O)[C@H](C)NC(=O)[C@H](C)NC(=O)[C@@H](NC(=O)[C@H](CO)NC(=O)[C@H](CC(C)C)NC(=O)[C@H](CCC(=O)O)NC(=O)[C@H](CO)NC(=O)[C@H](C)NC(=O)[C@H](CCC(=O)O)NC(=O)CC[C@H](NC(=O)CCCCCCCCCCCCCCCCCCC(=O)O)C(=O)O)[C@@H](C)O)C(=O)NCC(=O)N[C@@H](CCCNC(=N)N)C(=O)N[C@@H](CC(C)C)C(=O)N[C@@H](CO)C(=O)N[C@@H](C)C(=O)N[C@@H](CCC(=O)O)C(=O)N[C@@H](CC(C)C)C(=O)N[C@@H](Cc1c[nH]cn1)C(=O)N[C@@H](CCC(=O)O)C(=O)N[C@@H](CC(C)C)C(=O)N[C@@H](C)C(=O)N[C@H](C(=O)N[C@@H](Cc1ccc(O)cc1)C(=O)N1CCC[C@H]1C(=O)N[C@@H](CCCNC(=N)N)C(=O)N[C@H](C(=O)N[C@@H](CCC(=O)O)C(=O)N[C@H](C(=O)NCC(=O)N[C@@H](CO)C(=O)NCC(=O)N[C@@H](CO)C(=O)N1CCC[C@H]1C(N)=O)[C@@H](C)O)[C@@H](C)O)[C@@H](C)O) [[N-terminal(C20 diacid-gGlu), 23Y, 30S, 31G]mimylin]
0.323 | {C18 diacid}-EASPLSTAVLGRLSAELHELATLPRTETGPESP-NH2 (SMILES CC(C)C[C@H](NC(=O)[C@H](CCC(=O)O)NC(=O)[C@H](Cc1c[nH]cn1)NC(=O)[C@H](CC(C)C)NC(=O)[C@H](CCC(=O)O)NC(=O)[C@H](C)NC(=O)[C@H](CO)NC(=O)[C@H](CC(C)C)NC(=O)[C@H](CCCNC(=N)N)NC(=O)CNC(=O)[C@H](CC(C)C)NC(=O)[C@@H](NC(=O)[C@H](C)NC(=O)[C@@H](NC(=O)[C@H](CO)NC(=O)[C@H](CC(C)C)NC(=O)[C@@H]1CCCN1C(=O)[C@H](CO)NC(=O)[C@H](C)NC(=O)[C@H](CCC(=O)O)NC(=O)CCCCCCCCCCCCCCCCC(=O)O)[C@@H](C)O)C(C)C)C(=O)N[C@@H](C)C(=O)N[C@H](C(=O)N[C@@H](CC(C)C)C(=O)N1CCC[C@H]1C(=O)N[C@@H](CCCNC(=N)N)C(=O)N[C@H](C(=O)N[C@@H](CCC(=O)O)C(=O)N[C@H](C(=O)NCC(=O)N1CCC[C@H]1C(=O)N[C@@H](CCC(=O)O)C(=O)N[C@@H](CO)C(=O)N1CCC[C@H]1C(N)=O)[C@@H](C)O)[C@@H](C)O)[C@@H](C)O) [[N-terminal(C18 diacid), 4P, 9V]mimylin]
0.352 | {C18 diacid}-EAPELSTAVLGRLSAELHELATLPRTETGPESP-NH2 (SMILES CC(C)C[C@H](NC(=O)[C@H](CCC(=O)O)NC(=O)[C@H](Cc1c[nH]cn1)NC(=O)[C@H](CC(C)C)NC(=O)[C@H](CCC(=O)O)NC(=O)[C@H](C)NC(=O)[C@H](CO)NC(=O)[C@H](CC(C)C)NC(=O)[C@H](CCCNC(=N)N)NC(=O)CNC(=O)[C@H](CC(C)C)NC(=O)[C@@H](NC(=O)[C@H](C)NC(=O)[C@@H](NC(=O)[C@H](CO)NC(=O)[C@H](CC(C)C)NC(=O)[C@H](CCC(=O)O)NC(=O)[C@@H]1CCCN1C(=O)[C@H](C)NC(=O)[C@H](CCC(=O)O)NC(=O)CCCCCCCCCCCCCCCCC(=O)O)[C@@H](C)O)C(C)C)C(=O)N[C@@H](C)C(=O)N[C@H](C(=O)N[C@@H](CC(C)C)C(=O)N1CCC[C@H]1C(=O)N[C@@H](CCCNC(=N)N)C(=O)N[C@H](C(=O)N[C@@H](CCC(=O)O)C(=O)N[C@H](C(=O)NCC(=O)N1CCC[C@H]1C(=O)N[C@@H](CCC(=O)O)C(=O)N[C@@H](CO)C(=O)N1CCC[C@H]1C(N)=O)[C@@H](C)O)[C@@H](C)O)[C@@H](C)O) [[N-terminal(C18 diacid), 3P, 9V]mimylin]
9 | {C18 diacid}-EASELSTAVLGRLSAELHELATLPRTEPGPESP-NH2 (SMILES CC(C)C[C@H](NC(=O)[C@H](CCC(=O)O)NC(=O)[C@H](Cc1c[nH]cn1)NC(=O)[C@H](CC(C)C)NC(=O)[C@H](CCC(=O)O)NC(=O)[C@H](C)NC(=O)[C@H](CO)NC(=O)[C@H](CC(C)C)NC(=O)[C@H](CCCNC(=N)N)NC(=O)CNC(=O)[C@H](CC(C)C)NC(=O)[C@@H](NC(=O)[C@H](C)NC(=O)[C@@H](NC(=O)[C@H](CO)NC(=O)[C@H](CC(C)C)NC(=O)[C@H](CCC(=O)O)NC(=O)[C@H](CO)NC(=O)[C@H](C)NC(=O)[C@H](CCC(=O)O)NC(=O)CCCCCCCCCCCCCCCCC(=O)O)[C@@H](C)O)C(C)C)C(=O)N[C@@H](C)C(=O)N[C@H](C(=O)N[C@@H](CC(C)C)C(=O)N1CCC[C@H]1C(=O)N[C@@H](CCCNC(=N)N)C(=O)N[C@H](C(=O)N[C@@H](CCC(=O)O)C(=O)N1CCC[C@H]1C(=O)NCC(=O)N1CCC[C@H]1C(=O)N[C@@H](CCC(=O)O)C(=O)N[C@@H](CO)C(=O)N1CCC[C@H]1C(N)=O)[C@@H](C)O)[C@@H](C)O) [[N-terminal(C18 diacid), 9V, 28P]mimylin]
0.432 | {C20 diacid-γGlu-AEEA-AEEA-AEEA}-ASELSTAALGRLSAELHELATLPRTETGSGSP-NH2 [[N-terminal(C20 diacid-gGlu-3xOEG), des1, 30S, 31G]mimylin]
